Test [1] can be described thus: MIC assays under different conditions (FIG. 7).
In another test the test system is MRSA strain ATCC 29213. Description: MIC assays under different conditions (FIG. 7). The note with it: MHBII alone.

B1: CF-301: bacteriophage lysin polypeptide derived from a Streptococcus suis prophage, amino acid sequence of FIG. 1 / SEQ ID NO: 1; 26 kDa bacteriolytic enzyme (protein, listed as Streptococcus suis)
chain: MTTVNEALNNVRAQVGSGVSVGNGECYALASWYERMISPDATVGLGAGVGWVSGAIGDTISAKNIGSSYNWQANGWTVSTSGPFKAGQIVTLGATPGNPYGHVVIVEAVDGDRLTILEQNYGGKRYPVRNYYSAASYRQQVVHYITPPGTVAQSAPNLAGSRSYRETGTMTVTVDALNVRRAPNTSGEIVAVYKRGESFDYDTVIIDVNGYVWVSYIGGSGKRNYVATGATKDGKRFGNAWGTFK
Consider B1, for which the MIC – broadly, the lowest concentration that inhibits growth of the organism – came out at 1 µg/mL in test [1] (100% human serum) and 16 µg/mL in test [1] (MHBII alone). In addition, in the test on MRSA strain ATCC 29213, the trailing effect entry is listed as “slight trailing effect”.

(Values after patent publication US10851401B2, “Broth microdilution method for evaluating and determining minimal inhibitory concentration of antibacterial polypeptides” (priority 2016, dated 2020).)
